Results: US20140322307A1 (LIPOTEC S A, published 2014)

What was measured:
[1] = target: T1, Proteinase-Activated Receptor-2 (human, on human keratinocytes) (human, UniProt P55085 37-397); assay: cell-based or functional assay
T1 sequence (looked up): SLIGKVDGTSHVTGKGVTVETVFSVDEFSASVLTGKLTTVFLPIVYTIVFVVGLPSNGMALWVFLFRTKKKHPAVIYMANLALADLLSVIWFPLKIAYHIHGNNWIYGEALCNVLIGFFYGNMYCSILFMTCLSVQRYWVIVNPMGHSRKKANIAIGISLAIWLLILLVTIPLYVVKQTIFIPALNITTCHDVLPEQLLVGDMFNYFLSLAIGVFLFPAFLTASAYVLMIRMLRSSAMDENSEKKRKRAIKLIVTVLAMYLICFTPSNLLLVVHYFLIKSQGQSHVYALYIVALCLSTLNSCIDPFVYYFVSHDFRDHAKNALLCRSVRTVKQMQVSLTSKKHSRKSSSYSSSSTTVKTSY

[2] = target: T2, Proteinase-Activated Receptor-2 (rat, on rat DRG neurons) (rat, UniProt Q63645 37-397); assay: cell-based or functional assay
T2 sequence (looked up): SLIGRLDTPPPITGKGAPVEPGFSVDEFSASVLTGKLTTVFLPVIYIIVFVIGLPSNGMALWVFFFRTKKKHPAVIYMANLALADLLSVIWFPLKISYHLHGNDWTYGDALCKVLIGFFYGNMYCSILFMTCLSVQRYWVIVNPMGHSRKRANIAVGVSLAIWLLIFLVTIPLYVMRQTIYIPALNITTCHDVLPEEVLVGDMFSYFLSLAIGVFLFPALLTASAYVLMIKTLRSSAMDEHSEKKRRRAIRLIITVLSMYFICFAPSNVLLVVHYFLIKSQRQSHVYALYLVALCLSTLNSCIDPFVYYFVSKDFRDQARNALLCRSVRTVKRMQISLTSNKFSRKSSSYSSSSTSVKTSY

Ac-FMWFHV-NH2 [Ac-L-Phe-L-Met-L-Trp-L-Phe-L-His-L-Val-NH2]
Inhibition PAR-2 activity (calcium fluorescence, human keratinocytes, peptide at 1 mg/mL) [1]: 76.5%
PAR-2 activity (calcium fluorescence, human keratinocytes, peptide at 1 mg/mL) [1]: 23.5%
% CGRP (release from rat DRG neurons after PAR-2 agonist I and capsaicin; peptide at 25 µg/mL) [2]: 70.1%
% CGRP (release from rat DRG neurons after PAR-2 agonist I and capsaicin; peptide at 0.5 mg/mL) [2]: 20.2%

Ac-FFWFHV-NH2 [Ac-L-Phe-L-Phe-L-Trp-L-Phe-L-His-L-Val-NH2]
Inhibition PAR-2 activity (calcium fluorescence, human keratinocytes, peptide at 1 mg/mL) [1]: 67.8%
PAR-2 activity (calcium fluorescence, human keratinocytes, peptide at 1 mg/mL) [1]: 32.2%
% CGRP (release from rat DRG neurons after PAR-2 agonist I and capsaicin; peptide at 25 µg/mL) [2]: 58.9%
% CGRP (release from rat DRG neurons after PAR-2 agonist I and capsaicin; peptide at 0.5 mg/mL) [2]: 17.7%

Ac-FFWDIV-NH2 [Ac-L-Phe-L-Phe-L-Trp-L-Asp-L-Ile-L-Val-NH2]
Inhibition PAR-2 activity (calcium fluorescence, human keratinocytes, peptide at 1 mg/mL) [1]: 67.4%
PAR-2 activity (calcium fluorescence, human keratinocytes, peptide at 1 mg/mL) [1]: 32.6%
% CGRP (release from rat DRG neurons after PAR-2 agonist I and capsaicin; peptide at 25 µg/mL) [2]: 78.7%
% CGRP (release from rat DRG neurons after PAR-2 agonist I and capsaicin; peptide at 0.5 mg/mL) [2]: 20.3%

Ac-SMWFIV-NH2 [Ac-L-Ser-L-Met-L-Trp-L-Phe-L-Ile-L-Val-NH2]
Inhibition PAR-2 activity (calcium fluorescence, human keratinocytes, peptide at 1 mg/mL) [1]: 43.3%
PAR-2 activity (calcium fluorescence, human keratinocytes, peptide at 1 mg/mL) [1]: 56.7%

Ac-FFWFIV-NH2 [Ac-L-Phe-L-Phe-L-Trp-L-Phe-L-Ile-L-Val-NH2]
Inhibition PAR-2 activity (calcium fluorescence, human keratinocytes, peptide at 1 mg/mL) [1]: 13.9%
PAR-2 activity (calcium fluorescence, human keratinocytes, peptide at 1 mg/mL) [1]: 86.1%
